{"source": "paper doi:10.1101/495762", "about": "(bioRxiv, 2018)", "binders": {"B1": {"name": "Smc1(N1192C)-HA6 (natural protein, S. cerevisiae, UniProt P32908 1-1225, looked up)", "chain": "MGRLVGLELSNFKSYRGVTKVGFGESNFTSIIGPNGSGKSNMMDAISFVLGVRSNHLRSNILKDLIYRGVLNDENSDDYDNEGAASSNPQSAYVKAFYQKGNKLVELMRIISRNGDTSYKIDGKTVSYKDYSIFLENENILIKAKNFLVFQGDVEQIAAQSPVELSRMFEEVSGSIQYKKEYEELKEKIEKLSKSATESIKNRRRIHGELKTYKEGINKNEEYRKQLDKKNELQKFQALWQLYHLEQQKEELTDKLSALNSEISSLKGKINNEMKSLQRSKSSFVKESAVISKQKSKLDYIFKDKEKLVSDLRLIKVPQQAAGKRISHIEKRIESLQKDLQRQKTYVERFETQLKVVTRSKEAFEEEIKQSARNYDKFKLNENDLKTYNCLHEKYLTEGGSILEEKIAVLNNDKREIQEELERFNKRADISKRRITEELSITGEKLDTQLNDLRVSLNEKNALHTERLHELKKLQSDIESANNQEYDLNFKLRETLVKIDDLSANQRETMKERKLRENIAMLKRFFPGVKGLVHDLCHPKKEKYGLAVSTILGKNFDSVIVENLTVAQECIAFLKKQRAGTASFIPLDTIETELPTLSLPDSQDYILSINAIDYEPEYEKAMQYVCGDSIICNTLNIAKDLKWKKGIRGKLVTIEGALIHKAGLMTGGISGDANNRWDKEEYQSLMSLKDKLLIQIDELSNGQRSNSIRAREVENSVSLLNSDIANLRTQVTQQKRSLDENRLEIKYHNDLIEKEIQPKITELKKKLDDLENTKDNLVKEKEALQNNIFKEFTSKIGFTIKEYENHSGELMRQQSKELQQLQKQILTVENKLQFETDRLSTTQRRYEKAQKDLENAQVEMKSLEEQEYAIEMKIGSIESKLEEHKNHLDELQKKFVTKQSELNSSEDILEDMNSNLQVLKRERDGIKEDIEKFDLERVTALKNCKISNINIPISSETTIDDLPISSTDNEAITISNSIDINYKGLPKKYKENNTDSARKELEQKIHEVEEILNELQPNARALERYDEAEGRFEVINNETEQLKAEEKKILNQFLKIKKKRKELFEKTFDYVSDHLDAIYRELTKNPNSNVELAGGNASLTIEDEDEPFNAGIKYHATPPLKRFKDMEYLSGGEKTVAALALLFAINSYQPSPFFVLDEVDAALDITNVQRIAAYIRRHRNPDLQFIVISLKCTMFEKSDALVGVYRQQQENSSKIITLDLSNYAE"}, "B2": {"name": "Smc1(S161C)-HA6 (natural protein, S. cerevisiae, UniProt P32908 1-1225, looked up)", "chain": "B1 chain with S161C, C1192N"}}, "assay_in_all_cases": "cross-linking", "key": {"acetylated Smc3(R1222C)": {"biological_target": "T1, acetylated Smc3(R1222C) (S. cerevisiae, UniProt P47037 1-1230, R1222C, acetylated, residues not given)", "T1 sequence (looked up)": "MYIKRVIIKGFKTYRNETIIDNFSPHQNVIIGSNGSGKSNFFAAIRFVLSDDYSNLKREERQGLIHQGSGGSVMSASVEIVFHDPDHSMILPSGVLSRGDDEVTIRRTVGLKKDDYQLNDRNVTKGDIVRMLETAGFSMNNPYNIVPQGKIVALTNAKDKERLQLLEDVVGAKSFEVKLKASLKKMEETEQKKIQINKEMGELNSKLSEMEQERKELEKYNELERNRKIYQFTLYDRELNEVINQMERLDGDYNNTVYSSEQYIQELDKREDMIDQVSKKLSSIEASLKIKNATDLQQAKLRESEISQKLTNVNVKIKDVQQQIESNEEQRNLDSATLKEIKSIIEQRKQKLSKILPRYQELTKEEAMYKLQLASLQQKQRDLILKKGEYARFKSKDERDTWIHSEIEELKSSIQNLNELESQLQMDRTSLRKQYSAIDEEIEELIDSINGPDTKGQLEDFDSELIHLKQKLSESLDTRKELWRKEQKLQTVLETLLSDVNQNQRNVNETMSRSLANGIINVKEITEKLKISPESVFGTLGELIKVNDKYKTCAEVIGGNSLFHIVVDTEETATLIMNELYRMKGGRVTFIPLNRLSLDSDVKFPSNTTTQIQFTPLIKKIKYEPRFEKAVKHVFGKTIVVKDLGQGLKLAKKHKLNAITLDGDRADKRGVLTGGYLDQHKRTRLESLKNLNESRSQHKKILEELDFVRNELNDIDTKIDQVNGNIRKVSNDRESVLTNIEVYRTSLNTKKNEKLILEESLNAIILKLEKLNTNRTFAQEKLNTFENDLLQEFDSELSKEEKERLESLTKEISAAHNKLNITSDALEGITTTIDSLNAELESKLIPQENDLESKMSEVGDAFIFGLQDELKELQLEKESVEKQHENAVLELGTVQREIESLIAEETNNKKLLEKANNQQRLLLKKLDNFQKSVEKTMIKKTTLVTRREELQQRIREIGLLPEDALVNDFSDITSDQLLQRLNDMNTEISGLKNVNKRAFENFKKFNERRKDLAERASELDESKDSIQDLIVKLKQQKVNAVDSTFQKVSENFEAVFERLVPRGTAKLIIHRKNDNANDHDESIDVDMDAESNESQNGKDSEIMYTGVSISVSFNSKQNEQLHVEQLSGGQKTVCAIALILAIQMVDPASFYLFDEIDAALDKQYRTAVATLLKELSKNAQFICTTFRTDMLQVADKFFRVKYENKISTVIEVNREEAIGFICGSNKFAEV"}, "Smc3(R1222C)": {"biological_target": "T2, Smc3(R1222C) (S. cerevisiae, UniProt P47037 1-1230, R1222C)", "T2 sequence (looked up)": "T1 sequence (looked up)"}, "Smc3(K160C)": {"biological_target": "T3, Smc3(K160C) (S. cerevisiae, UniProt P47037 1-1230, K160C)", "T3 sequence (looked up)": "T1 sequence (looked up) with K160C, C1222R"}, "acetylated Smc3(K160C)": {"biological_target": "T4, acetylated Smc3(K160C) (S. cerevisiae, UniProt P47037 1-1230, K160C, acetylated, residues not given)", "T4 sequence (looked up)": "T1 sequence (looked up) with K160C, C1222R"}}, "note": "Residue numbers refer to the chain shown, from its start. Numbers in names are those of the source."}
{"binder": "B1", "values": [{"measurement": "cross-linking efficiency", "setting": "acetylated Smc3(R1222C)", "value": 3, "unit": "%"}, {"measurement": "cross-linking efficiency", "setting": "Smc3(R1222C)", "value": 41, "unit": "%"}]}
{"binder": "B2", "values": [{"measurement": "cross-linking efficiency", "setting": "Smc3(K160C)", "value": 7, "unit": "%"}, {"measurement": "cross-linking efficiency", "setting": "acetylated Smc3(K160C)", "value": 37, "unit": "%"}]}
